# Measurements: US20090291081A1 (AbbVie / Abbott, published 2009)
# Changes are numbered by the printed parent chain.
# T1: human IL-1α (human, UniProt P01583 113-271)
# T1 construct: also called IL-1alpha; hIL-1α
# T1 sequence (looked up): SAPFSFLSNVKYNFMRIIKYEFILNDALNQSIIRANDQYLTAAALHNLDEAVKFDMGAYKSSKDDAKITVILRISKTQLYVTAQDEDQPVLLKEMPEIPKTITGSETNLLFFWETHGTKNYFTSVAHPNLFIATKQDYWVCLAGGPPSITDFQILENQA
# B1: ABT1-95-106 (other)
# VL: DIQMTQSPSSLSASVGDRVTITCRASQPIVRNLRWYQQKPGKAPKLLIYSSSYLERGVPSRFSGSGSGTDFTLTISSLQPEDFATYHCQQGYRWPVAFGQGTKVEIKR
# notes: VK dAb
# B2: ABT1-95-108 (other)
# VL: B1 VL with R56E, A97T
# notes: VK dAb
# B3: ABT1-95-110 (other)
# VL: B1 VL with R56A, A97T
# notes: VK dAb
# B4: ABT1-95-111 (other)
# VL: B1 VL with R56D, A97T
# notes: VK dAb
# B5: ABT1-95-112 (other)
# VL: B1 VL with R56N, A97T
# notes: VK dAb
# B6: ABT1-95-114 (other)
# VL: B1 VL with R56V, A97T
# notes: VK dAb
# B7: ABT1-95-120 (other)
# VL: B1 VL with V30A, R56P, G91V, A97T
# notes: VK dAb
# B8: ABT1-95-123 (other)
# VL: B1 VL with R56P, R93A, A97T
# notes: VK dAb
# B9: ABT1-95-124 (other)
# VL: B1 VL with R56P, R93M, A97T
# notes: VK dAb
# B10: ABT1-95-125 (other)
# VL: B1 VL with R56P, V96L, A97T
# notes: VK dAb
# B11: ABT1-95-126 (other)
# VL: B1 VL with R56P, V96S, A97T
# notes: VK dAb
# B12: ABT1-95-127 (other)
# VL: B1 VL with R56P, S76G, V96I, A97T
# notes: VK dAb
# B13: ABT1-95-128 (other)
# VL: B1 VL with R56P, V96G, A97T
# notes: VK dAb
# B14: ABT1-95-129 (other)
# VL: B1 VL with R56P, Q79H, F83L, A97T
# notes: VK dAb
# B15: ABT1-95-130 (other)
# VL: B1 VL with R56P, H87Y, R93L, A97T
# notes: VK dAb
# B16: ABT1-95-140 (other)
# VL: B1 VL with P28G, R56P, A97T
# notes: VK dAb
# B17: ABT1-95-141 (other)
# VL: B1 VL with V30L, R56P, A97T
# notes: VK dAb
# B18: ABT1-95-142 (other)
# VL: B1 VL with V30T, R56P, A97T
# notes: VK dAb
# B19: ABT1-95-143 (other)
# VL: B1 VL with Y49T, R56P, A97T
# notes: VK dAb
# B20: ABT1-95-144 (other)
# VL: B1 VL with E55S, R56P, A97T
# notes: VK dAb
# B21: ABT1-95-145 (other)
# VL: B1 VL with R18H, E55V, R56P, A97T
# notes: VK dAb
# B22: ABT1-95-146 (other)
# VL: B1 VL with P28N, R56P, A97T
# notes: VK dAb
# B23: ABT1-95-147 (other)
# VL: B1 VL with R24W, P28G, R56P, A97T
# notes: VK dAb
# B24: ABT1-95-150 (other)
# VL: B1 VL with P28H, R56P, A97T
# notes: VK dAb
# B25: ABT1-95-151 (other)
# VL: B1 VL with S26G, R56P, A97T, G99D
# notes: VK dAb
# B26: ABT1-95-152 (other)
# VL: B1 VL with S26G, V30P, R56P, A97T
# notes: VK dAb
# B27: ABT1-95-153 (other)
# VL: B1 VL with V30I, R56P, D70G, A97T
# notes: VK dAb
# B28: ABT1-95-154 (other)
# VL: B1 VL with Y49S, R56P, A97T
# notes: VK dAb
# B29: ABT1-95-155 (other)
# VL: B1 VL with Y49T, R56P, F83S, A97T
# notes: VK dAb
# B30: ABT1-95-156 (other)
# VL: B1 VL with Y49A, R56P, Q89L, A97T
# notes: VK dAb
# B31: ABT1-95-157 (other)
# VL: B1 VL with Y49T, R56P, T69A, A97T
# notes: VK dAb
# B32: ABT1-95-158 (other)
# VL: B1 VL with Y49F, R56P, A97T
# notes: VK dAb
# B33: ABT1-95-159 (other)
# VL: B1 VL with V30A, R56P, G91V, A97T
# notes: VK dAb
# B34: ABT1-131 (other)
# VL: DIQMTQSPSSLSASVGDRVTITCRASQRINGNLRWYQQKPGKAPKLLIYSVSQLQSGVPSRFSGSGSGTDFTLTISSLQPEDFATYYCQQGYDWPPTFGQGTKVETKR
# notes: VK dAb
# B35: ABT1-141-10 (other)
# VL: DIQMTQSPSSLSASVGDRVTITCRASQWIQKQLAWYQQKPGKAPKLLIYSSSYLQSGVPSRFSGSGSGTDFTLTISSLQPEDFATYYCQQSLRVPFTFGQGTKVEIKR
# notes: VK dAb
# B36: ABT1-141-27 (other)
# VL: B35 VL with S91G, V94Q, F96M
# notes: VK dAb
# B37: ABT1-141-35 (other)
# VL: B35 VL with S51A, Y53W, S91H, F96M
# notes: VK dAb
# B38: ABT1-141-54 (other)
# VL: B35 VL with Y53H, S91H, F96M
# notes: VK dAb
# B39: ABT1-154 (other)
# VL: DIQMTQSPSSLSASVGDRVTITCRASTEIVRNLRWYQQKPGKAPKLLISGVSGLQSGVPSRFSGSGSGTDFTLTISSLQPEDFATYYCVQGYSWPVTFGQGTKVEIKR
# notes: VK dAb
# B40: ABT1-160 (other)
# VL: B39 VL with K45N, S49W, V51G, G53T, W94L
# notes: VK dAb
# B41: ABT1-137 (other)
# VH: EVQLLESGGGLVQPGGSLRLSCAASGFTFERYWMAWVRQAPGKGLEWVSNINLTGSATYYADSVKGRFTISRDNSKNTLYLQMNSLRAEDTAVYYCAKGAFQFDYWGQGTLVTVSS
# notes: VH dAb
# B42: ABT1-157 (other)
# VL: DIQMTQSPSSLSASVGDRVTITCRASQSISSYLNWYQQKPGKAPKLLIGGVSGLQSGVPSRFSGSGSGTDFTLTISSLQPEDFATYYCMQWSRPPRTFGQGTKVEIKR
# notes: VK dAb
# B43: ABT1-166 (other)
# VL: B42 VL with V51L, M89G, S92A, P94A, R96M
# notes: VK dAb
# B44: ABT1-167 (other)
# VL: B42 VL with V51L, S92W, P94Y, R96P
# notes: VK dAb
# B45: ABT1-168 (other)
# VL: B42 VL with V51L, M89L, S92F, R93S, P94E, R96A
# notes: VK dAb
# B46: ABT1-170 (other)
# VL: B42 VL with V51R, M89K, S92Y, P94Y, R96S
# notes: VK dAb
# B47: ABT1-171 (other)
# VL: B42 VL with V51R, S92F
# notes: VK dAb
# B48: ABT1-150 (other)
# VL: DIQMTQSPSSLSASVGDRVTITCRASQSISSYLNWYQQKPGKAPKLLIGGVSGLQSGVPSRFSGSGSGTDFTLTISSLQPEDFATYYCMQWWRWPSTFGQGTKVEIKRAAAEQKLISEED
# notes: VK dAb
# B49: ABT1-151 (other)
# VL: B48 VL with V51R, M89G, W92Y, W94H, S96A
# notes: VK dAb
# B50: ABT1-152 (other)
# VL: B48 VL with V51R, S76G, W92Y, W94A
# notes: VK dAb
# B51: ABT1-123 (other)
# VL: DIQMTQSPSSLSASVGDRVTITCRASQSIWTELKWYQQKPGKAPKLLIYGASLLQSGVPSRFSGSGSGTDFTLTISSLQPEDFATYYCQQFAYHPHTFGQGTKVEIKR
# notes: VK dAb
# B52: ABT1-130 (other)
# VL: DIQMTQSPSSLSASVGDRVTITCRASQEIGLWLSWYQQKSGKAPKLLIYRHSSSQSGVPSRFSGSGSGTDFTLTISSLQPEDFATYYCQQTYKAPFTFGQGTKVEIKR
# notes: VK dAb
# B53: ABT1-132 (other)
# VL: DIQMTQSPSSLSASVGDRVTITCRASQNIATALLWYQQKPGKAPRLLIYDSSQLQSGVPSRFSGSGSGTDFTLTISSLQPEDFATYYCQQMYWVPFTFGQGTKVEIKR
# notes: VK dAb
# B54: ABT1-139 (other)
# VH: EVQLLESGGGLVQPGGSLRLSCAASGFTFSDYTMIWVRQAPGKGLEWVSSISARGWGTYYADSVKGRFTISRDNSKNTLYLQMNSLRAEDTAVYYCAKGSPQLVLPFDYWGQGTLVTVSS
# notes: VH dAb
# Target: T1, human IL-1α
# Experiment: Table 62 IC50; RBA presumed
row,Binder,IC50
1,B1,0.1 nM
2,B2,0.5 nM
3,B3,0.1 nM
4,B4,< 0.1 nM
5,B5,0.1 nM
6,B6,0.2 nM
7,B7,0.1 nM
8,B8,0.1 nM
9,B9,0.2 nM
10,B10,0.2 nM
11,B11,0.8 nM
12,B12,0.1 nM
13,B13,> 1 nM
14,B14,> 10 nM
15,B15,> 1 nM
16,B16,0.2 nM
17,B17,1 nM
18,B18,0.5 nM
19,B19,10 nM
20,B20,0.5 nM
21,B21,0.8 nM
22,B22,0.8 nM
23,B23,0.2 nM
24,B24,0.2 nM
25,B25,0.2 nM
26,B26,0.8 nM
27,B27,0.5 nM

row,Binder,IC50
1,B28,> 10 nM
2,B29,10 nM
3,B30,10 nM
4,B31,10 nM
5,B32,0.5 nM
6,B33,0.1 nM
7,B34,80 nM
8,B35,30 nM
9,B36,20 nM
10,B37,10 nM
11,B38,3 nM
12,B39,> 1000 nM
13,B40,300 nM
14,B41,200 nM
15,B42,300 nM
16,B43,> 1000 nM
17,B44,> 1000 nM
18,B45,> 1000 nM
19,B46,> 1000 nM
20,B47,> 1000 nM
21,B48,150 nM
22,B49,200 nM
23,B50,300 nM
24,B51,> 500 nM
25,B52,300 nM
26,B53,300 nM
27,B54,80 nM
